Assay results: patent US20250263444A1 (KOREA UNIVERSITY RESEARCH AND BUSINESS FOUNDATION SEJONG …, published 2025)

T1: vIRF3 (Δ250-280) mutant (Kaposi's sarcoma-associated herpesvirus …, UniProt F5HIC6 1-566)
T1 construct: V5-tagged, stably expressed in LECs; also called V5/vIRF3(Δ250-280); V5-vIRF3(Δ250-280)
T1 sequence: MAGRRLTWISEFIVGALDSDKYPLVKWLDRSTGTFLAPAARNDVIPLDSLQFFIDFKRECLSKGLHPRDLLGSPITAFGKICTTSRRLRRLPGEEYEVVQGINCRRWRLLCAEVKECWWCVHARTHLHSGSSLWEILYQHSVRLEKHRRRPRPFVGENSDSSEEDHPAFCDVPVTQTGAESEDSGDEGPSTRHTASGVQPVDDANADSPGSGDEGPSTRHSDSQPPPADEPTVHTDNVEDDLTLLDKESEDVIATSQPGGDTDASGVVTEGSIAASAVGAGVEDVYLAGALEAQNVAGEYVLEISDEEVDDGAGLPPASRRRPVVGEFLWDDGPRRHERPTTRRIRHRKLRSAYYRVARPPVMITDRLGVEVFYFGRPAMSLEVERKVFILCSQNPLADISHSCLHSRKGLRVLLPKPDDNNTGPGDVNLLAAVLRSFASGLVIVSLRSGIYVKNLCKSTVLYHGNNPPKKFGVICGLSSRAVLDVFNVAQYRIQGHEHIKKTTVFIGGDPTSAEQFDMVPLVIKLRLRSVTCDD

T2: vIRF3 mutant with deleted aa250-260 (Kaposi's sarcoma-associated herpesvirus …, UniProt F5HIC6 1-566)
T2 construct: V5-tagged, expressed in LECs; end of the protein at 566 from the TM3 range (430-566); also called vIRF3(Δ250-260)
T2 sequence: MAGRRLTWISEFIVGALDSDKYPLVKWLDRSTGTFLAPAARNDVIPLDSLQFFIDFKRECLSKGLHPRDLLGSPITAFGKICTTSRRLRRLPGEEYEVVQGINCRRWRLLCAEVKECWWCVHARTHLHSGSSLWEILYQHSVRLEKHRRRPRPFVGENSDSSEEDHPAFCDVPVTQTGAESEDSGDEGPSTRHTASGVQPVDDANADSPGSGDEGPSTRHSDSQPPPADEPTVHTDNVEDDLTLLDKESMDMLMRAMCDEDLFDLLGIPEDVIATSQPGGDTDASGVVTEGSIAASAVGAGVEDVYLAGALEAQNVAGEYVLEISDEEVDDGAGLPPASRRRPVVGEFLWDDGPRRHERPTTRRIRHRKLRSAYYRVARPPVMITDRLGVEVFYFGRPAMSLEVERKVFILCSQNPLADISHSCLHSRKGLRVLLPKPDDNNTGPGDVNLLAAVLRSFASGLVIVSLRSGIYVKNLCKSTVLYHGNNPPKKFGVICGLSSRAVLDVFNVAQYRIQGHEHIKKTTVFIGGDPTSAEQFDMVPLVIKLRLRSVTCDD

B1: pyruvate kinase M2 (PKM2) (enzyme)
chain: not shown
notes: Either endogenous PKM2 of LECs or HA-tagged hPKM2 from pCMV-HA-hPKM2 in 293T cells; also called PMK2; hPKM2

Key:
vIRF3 (Δ250-280) mutant = biological target: T1, vIRF3 (Δ250-280) mutant; assay: told in words; LECs expressing the mutant
[1] = biological target: T2, vIRF3 mutant with deleted aa250-260; assay: IP with anti-PKM2, blot with anti-V5, LEC lysates
[2] = biological target: B1; assay: cell-based or functional assay

Row | Binder | binding result (vIRF3 (Δ250-280) mutant) | binding result [1] | Boyden chamber cell migration of LECs [2] [fold]
1 | B1 | no binding | no binding | –
2 | Kaposi's sarcoma-associated herpesvirus (KSHV) viral interferon regulatory factor 3 (vIRF3), wild type (other) MAGRRLTWISEFIVGALDSDKYPLVKWLDRSTGTFLAPAARNDVIPLDSLQFFIDFKRECLSKGLHPRDLLGSPITAFGKICTTSRRLRRLPGEEYEVVQGINCRRWRLLCAEVKECWWCVHARTHLHSGSSLWEILYQHSVRLEKHRRRPRPFVGENSDSSEEDHPAFCDVPVTQTGAESEDSGDEGPSTRHTASGVQPVDDANADSPGSGDEGPSTRHSDSQPPPADEPTVHTDNVEDDLTLLDKESACALMYHVGQEMDMLMRAMCDEDLFDLLGIPEDVIATSQPGGDTDASGVVTEGSIAASAVGAGVEDVYLAGALEAQNVAGEYVLEISDEEVDDGAGLPPASRRRPVVGEFLWDDGPRRHERPTTRRIRHRKLRSAYYRVARPPVMITDRLGVEVFYFGRPAMSLEVERKVFILCSQNPLADISHSCLHSRKGLRVLLPKPDDNNTGPGDVNLLAAVLRSFASGLVIVSLRSGIYVKNLCKSTVLYHGNNPPKKFGVICGLSSRAVLDVFNVAQYRIQGHEHIKKTTVFIGGDPTSAEQFDMVPLVIKLRLRSVTCDD | – | – | 2
